Where a chain is given by its changes, count along the chain named.
B1: GOMP001_bsAb_018 (bispecific antibody, human IgG1, kappa, L234A L235A)
heavy 1: EVQLVESGGDLVQPGRSLRLSCAASGFTFDDCVIHWVRKAPGKGLEWVSGITWNSGRIGYADEVKGRFTISRDNAKNSLYLQMNSLRVEDTALYYCAKEGNYDFWSTYYRGYFDLWGRGTLVTVSSASTKGPSVFPLAPSSKSTSGGTAALGCLVADYFPEPVTVSWNSGALTSGVHTFPAVLQSSGLYSLSSVVTVPSSSLGTQTYICNVNHKPSNTKVDEKVEPKSCDKTHTCPPCPAPEAAGGPSVFLFPPKPKDTLMISRTPEVTCVVVDVSHEDPEVKFNWYVDGVEVHNAKTKPREEQYNSTYRVVSVLTVLHQDWLNGKEYKCKVSNKALPAPIEKTISKAKGQPREPQVYTLPPSREEMTDNQVSLTCLVKGFYPSDIAVEWESNGQPENNYKTTPPVLMSDGSFFLASKLTVDKSRWQQGNVFSCSVMHEALHNHYTQKSLSLSPG
light 1: RIQMTQSPSSLSASVGDRVTITCRASQGIRNDLGWYQDKPGIAPKRLIYAASSLQGGVPLRFSGSGSGTEFTLTISSLQPEDFATYYCLQHNSYPYTFGQGTKLEIKRTVAAPSVFIFPPSDKQLKSGTARVVCLLNNFYPREAKVQWKVDNALQSGNSQESVTEQDSKDSTYSLSSTLTLSKADYEKHKVYACEVTHQGLSSPVTKSFNRGEC
heavy 2: QVQLVQSGAEVKKPGASVKVSCKASGYTFTSHWMHWVRYAPGQGLEWIGEFNPSNGRTNYNEKFKSKATMTVDTSTNTAYMELSSLRSEDTAVYYCASRDYDYDGRYFDYWGRGTLVTVSSASTKGPSVFPLAPSSKSTSGGTAALGCLVKDYFPEPVTVSWNSGALTSGVHTFPAVLQSSGLYSLSSVVTVPSSSLGTQTYICNVNHKPSNTKVDKKVEPKSCDKTHTCPPCPAPEAAGGPSVFLFPPKPKDTLMISRTPEVTCVVVDVSHEDPEVKFNWYVDGVEVHNAKTKPREEQYNSTYRVVSVLTVLHQDWLNGKEYKCKVSNKALPAPIEKTISKAKGQPRRPRVYTLPPSREEMTKNQVSLVCLVKGFYPSDIAVEWESNGQPENNYKTTPPVLDSDGSFFLYSVLTVDKSRWQQGNVFSCSVMHEALHNHYTQKSLSLSPG
light 2: DIQMTQSPSSLSASVGDRVTITCSASSSVTYMYWYQRKPGDAPKLLIYDTSNLASGVPSRFSGSGSGTDYTFTISSLQPEDIATYYCQQWSSHIFTFGQGTKVEIKRTVAAPSVFIFPPSDEQLKSGTASVVCLLNNFYPREAKVQWKVDNALQSGNSQESVTEQDSKDSTYSLSSTLTLSKADYEKHKVYACEVTHQGLSSPVTKSFNRGEC
B2: GOMP001_bsAb_021 (bispecific antibody, human IgG1, kappa, L234A L235A)
heavy 1: QVQLVQSGAEVKKPGASVKVSCKASGYTFTSHWMHWVRKAPGQGLEWIGEFNPSNGRTNYNEEFKSKATMTVDTSTNTAYMELSSLRSEDTAVYYCASRDYDYDGRYFDYWGQGTLVTVSSASTKGPSVFPLAPSSKSTSGGTAALGCLVADYFPEPVTVSWNSGALTSGVHTFPAVLQSSGLYSLSSVVTVPSSSLGTQTYICNVNHKPSNTKVDEKVEPKSCDKTHTCPPCPAPEAAGGPSVFLFPPKPKDTLMISRTPEVTCVVVDVSHEDPEVKFNWYVDGVEVHNAKTKPREEQYNSTYRVVSVLTVLHQDWLNGKEYKCKVSNKALPAPIEKTISKAKGQPREPQVYTLPPSREEMTDNQVSLTCLVKGFYPSDIAVEWESNGQPENNYKTTPPVLMSDGSFFLASKLTVDKSRWQQGNVFSCSVMHEALHNHYTQKSLSLSPG
light 1: B1 light 2 with D1R, R37D, D41K, E122K, S130R
heavy 2: QMLLVESGGGVVQPGRSLTLSCAASGFTFRSYGMHWVRYAPGRGLEWVAIIWYDGSTEYYADRVKGRFTISRANSKNMLYLQMNSLRAEDTAVYYCAAFDYTNSFDIWGRGTMVTVSSASTKGPSVFPLAPSSKSTSGGTAALGCLVKDYFPEPVTVSWNSGALTSGVHTFPAVLQSSGLYSLSSVVTVPSSSLGTQTYICNVNHKPSNTKVDKKVEPKSCDKTHTCPPCPAPEAAGGPSVFLFPPKPKDTLMISRTPEVTCVVVDVSHEDPEVKFNWYVDGVEVHNAKTKPREEQYNSTYRVVSVLTVLHQDWLNGKEYKCKVSNKALPAPIEKTISKAKGQPRRPRVYTLPPSREEMTKNQVSLVCLVKGFYPSDIAVEWESNGQPENNYKTTPPVLDSDGSFFLYSVLTVDKSRWQQGNVFSCSVMHEALHNHYTQKSLSLSPG
light 2: DIVVTQTPLSSPVTLGQPASISCRSSQRFVHSDGNTYLSWLQRRPGDPPRLLIYKISNRISGVPDRFSGSGAGTDFKLKISRVEAEDVGIYYCMQATQFPYTFGQGTKLEIKRTVAAPSVFIFPPSDEQLKSGTASVVCLLNNFYPREAKVQWKVDNALQSGNSQESVTEQDSKDSTYSLSSTLTLSKADYEKHKVYACEVTHQGLSSPVTKSFNRGEC
B3: GOMP001_bsAb_020 (bispecific antibody, human IgG1, kappa, L234A L235A)
heavy 1: EVQLVDSGGGLVQPGGSLRLSCSGSGFTFSSYWMSWVRKAPGKGLEWVANIKQDGSQKYYVDEVKGRFTISRDNVKNSLYLQMNSLRVEDTAVYYCARDESSSWYWYFDLWGRGTLVTVSSASTKGPSVFPLAPSSKSTSGGTAALGCLVADYFPEPVTVSWNSGALTSGVHTFPAVLQSSGLYSLSSVVTVPSSSLGTQTYICNVNHKPSNTKVDEKVEPKSCDKTHTCPPCPAPEAAGGPSVFLFPPKPKDTLMISRTPEVTCVVVDVSHEDPEVKFNWYVDGVEVHNAKTKPREEQYNSTYRVVSVLTVLHQDWLNGKEYKCKVSNKALPAPIEKTISKAKGQPREPQVYTLPPSREEMTDNQVSLTCLVKGFYPSDIAVEWESNGQPENNYKTTPPVLMSDGSFFLASKLTVDKSRWQQGNVFSCSVMHEALHNHYTQKSLSLSPG
light 1: RIQMTQSPSTLSASVGDRVTLTCRASQNIVKWLAWYQDKPGKAPKLLIYKASSLESGVPSWFSGSGSGTEFTLTINSLQPDDFATYYCQQYYTYSRTFGQGTKVEIKRTVAAPSVFIFPPSDKQLKSGTARVVCLLNNFYPREAKVQWKVDNALQSGNSQESVTEQDSKDSTYSLSSTLTLSKADYEKHKVYACEVTHQGLSSPVTKSFNRGEC
heavy 2: B1 heavy 2
light 2: B1 light 2
B4: GOMP001_bsAb_022 (bispecific antibody, human IgG1, kappa, L234A L235A)
heavy 1: QMLLVESGGGVVQPGRSLTLSCAASGFTFRSYGMHWVRKAPGRGLEWVAIIWYDGSTEYYADEVKGRFTISRANSKNMLYLQMNSLRAEDTAVYYCAAFDYTNSFDIWGQGTMVTVSSASTKGPSVFPLAPSSKSTSGGTAALGCLVADYFPEPVTVSWNSGALTSGVHTFPAVLQSSGLYSLSSVVTVPSSSLGTQTYICNVNHKPSNTKVDEKVEPKSCDKTHTCPPCPAPEAAGGPSVFLFPPKPKDTLMISRTPEVTCVVVDVSHEDPEVKFNWYVDGVEVHNAKTKPREEQYNSTYRVVSVLTVLHQDWLNGKEYKCKVSNKALPAPIEKTISKAKGQPREPQVYTLPPSREEMTDNQVSLTCLVKGFYPSDIAVEWESNGQPENNYKTTPPVLMSDGSFFLASKLTVDKSRWQQGNVFSCSVMHEALHNHYTQKSLSLSPG
light 1: B2 light 2 with D1R, R43D, D47Q, E128K, S136R
heavy 2: B1 heavy 2
light 2: B1 light 2
B5: GOMP001_bsAb_019 (bispecific antibody, human IgG1, kappa, L234A L235A)
heavy 1: B2 heavy 1
light 1: B1 light 2 with D1R, R37D, D41K, E122K, S130R
heavy 2: EVQLVDSGGGLVQPGGSLRLSCSGSGFTFSSYWMSWVRYAPGKGLEWVANIKQDGSQKYYVDRVKGRFTISRDNVKNSLYLQMNSLRVEDTAVYYCARDESSSWYWYFDLWGRGTLVTVSSASTKGPSVFPLAPSSKSTSGGTAALGCLVKDYFPEPVTVSWNSGALTSGVHTFPAVLQSSGLYSLSSVVTVPSSSLGTQTYICNVNHKPSNTKVDKKVEPKSCDKTHTCPPCPAPEAAGGPSVFLFPPKPKDTLMISRTPEVTCVVVDVSHEDPEVKFNWYVDGVEVHNAKTKPREEQYNSTYRVVSVLTVLHQDWLNGKEYKCKVSNKALPAPIEKTISKAKGQPRRPRVYTLPPSREEMTKNQVSLVCLVKGFYPSDIAVEWESNGQPENNYKTTPPVLDSDGSFFLYSVLTVDKSRWQQGNVFSCSVMHEALHNHYTQKSLSLSPG
light 2: B3 light 1 with R1D, D38R, K42D, K123E, R131S

Biological target: EGFR on HeLa cells (UniProt P00533 25-1210, limits assumed)
Assay: cell-based or functional assay

Row | X… HeLa EC50 | Binder | Max killing %
1 | 111 pM | B1 | 97.3%
2 |  | B2 | 25.4%
3 | 102 pM | B3 | 79.6%
4 | 478 pM | B4 | 60.6%
5 |  | B5 | 48.3%

Reference: patent publication US20230295310A1 (ABCELLERA BIOLOGICS, published 2023)
